Reference: patent US9952227B2, “Method for detecting bilirubin” (Research Foundation of the City University of New York, priority 2015, dated 2018)
Where “and” joins values, the source holds several entries; their conditions need not be identical. Equal entries are not always repeated. Where two headings read alike, the source gives them in different places.

Columns and labels:
[1] = reference fluorescent protein; cited from earlier work
[2] = reported value for reference fluorescent protein; cited from earlier work
mammalian cells = assay: Fluorescence of expressed protein in mammalian cells upon addition of exogenous bilirubin; assay type: cell-based
Excerpt: (§1) Hayashi and Toda reported that Anguilla japonica (heavily farmed in Japanese aquaculture and a historical staple of Japanese cuisine) was weakly green fluorescent. They purified a fluorescent protein from A. japonica muscle tissue and isolated and sequenced several peptide fragments. […] Then in 2013, Kumagai et al., published a full characterization of the fluorescent protein from A. japonica. […] The Kaupichthys hyoproroides and Kaupichthys n. sp. data was re-examined and found a single transcript in each of the two species' transcriptomes that encoded an FABP including the Gly-Pro-Pro insertion. […] These proteins, termed Chlopsid FP I and Chlopsid FP II, are orthologs of UnaG (FIG. 1). FIG. 1 depicts sequence alignment of fluorescent FABPs from eels with a non-fluorscent FABP from Kaupichthys hyoproroides (Chlopsid NFP) and human brain FABP-7. Areas of homology are identified with solid lines boxes. The GPP sequence motif is identified with a dotted lined box.

[3] = Fluorescence excitation and emission spectra; assay type: physicochemical
Procedure: In Chlopsid FP I and Chlopsid FP II this amino acid is a histidine. This difference in amino acid sequence can potentially explain the fluorescence shift, due to an increase in the π conjugation of the system.
Fluorescence Spectroscopy: Fluorescence excitation and emission spectra were recorded using a F-7000 Hitachi Fluorescence Spectrometer.

[4] = Fluorescence quantum yield; assay type: physicochemical
Procedure: The fluorescence quantum yield of Chlopsid FP I was determined to be 0.47. […] These values are close to the reported quantum yield for UnaG of 0.51 (Table 1). Two prolines in the Gly-Pro-Pro sequence motif were mutated to glycine.

E. coli = assay: Fluorescence of expressed protein in E. coli upon addition of exogenous bilirubin; assay type: cell-based
Excerpt: as §1
Protein Expression and Purification. Candidate ORFs were selected from eel transcriptome data containing an unusual sequence motif (Gly-Pro-Pro) on a loop between two beta sheets in the FABP sequence. […] Protein concentration was determined by A280 measurements, using calculated extinction coefficients of 15,300 M^−1 cm^−1 for Chlopsid FP I, and 16,600 M^−1 cm^−1 for Chlopsid FP II. […]

HEK293 cells = assay: Expression of Chlopsid FP I in HEK293 cells, single and two-photon imaging; assay type: cell-based
Procedure: Expression in Mammalian Cells: Chlopsid FP I was expressed in mammalian cells (HEK293) without the addition of bilirubin. […] The two-photon excitation was fairly flat from 700-1000 nm with a peak at 860 nm and an unusual dip at 840 nm.
Expression of Chlopsid FP I in HEK293 Cells: A pCS2+vector was used for cloning of Chlopsid FP I for expression in HEK293 cells (ATCC, USA) using Kpn-Sphl cloning sites. Plasmids were prepared by Genscript USA, Inc. The expression was driven in HEK293 cells (ATCC, USA) by CMV promotor. The HEK293 cell line was maintained in Dulbecco's Modified Eagle Medium (High Glucose) (DMEM) (Invitrogen, USA), supplemented with 10% fetal bovine serum (FBS) (Sigma-Aldrich, USA), in a 37° C. incubator with 5% CO2. Transient transfection was performed using 2 μg of DNA per 35 mm dish and 5 μg of Lipofectamine 2000 (Invitrogen, N.Y.). Cells were imaged on a custom-made 2-photon microscope using a Chameleon Ti-Sapphire laser (Coherent Inc, CA) and water immersion 20×/0.95 N.A. objective (Olympus, Japan). Images were taken using 850 nm laser light with power of 15 mW at the objective.

B1: UnaG: bilirubin inducible fluorescent protein from Anguilla japonica, novel member of the FABP family (protein, UniProt P0DM59 1-139, looked up)
Bilirubin-inducible …: MVEKFVGTWKIADSHNFGEYLKAIGAPKELSDGGDATTPTLYISQKDGDKMTVKIENGPPTFLDTQVKFKLGEEFDEFPSDRRKGVKSVVNLVGEKLVYVQKWDGKETTYVREIKDGKLVVTLTMGDVVAVRSYRRATE
In the case of B1, the “Ex/Em maxima: emission maximum” value [1] is listed as 523 nm and 530 nm, the “Ex/Em maxima: excitation maximum” value [1] is listed as 489 nm and 498 nm and the Fluorescence quantum yield [2] is listed as 0.51.

B2: Chlopsid FP II: bilirubin-inducible fluorescent fatty acid-binding protein from Kaupichthys n. sp., SEQ ID NO: 2 (protein)
chain: MFEDFLGTWECIDSQNFGAYLAAVGAPPVLSDRADATRPTVYFNRDGDKLSLKVEHGPPPLKDVILSFKLGEEFDEHPTDGRKCKTLVTFEGDKLLYLQKWDGKETVVVREIRDGNVVATLSHEGVVALRVYKKVAGPTA
modifications: Kaupichthys hyoproroides
In the case of B2, the “Fluorescence upon addition of exogenous bilirubin” value (from here on “Fluorescence upon addition”) (mammalian cells) is reported as “strong green fluorescence”, the “Ex/Em maxima: emission maximum” value [3] is reported as 527 nm and 524 nm and the “Ex/Em maxima: excitation maximum” value [3] is reported as 498 nm and 490 nm. The Fluorescence quantum yield [4] was 0.37 and the “Fluorescence upon addition” value (E. coli) was “strong green fluorescence”.

B3: Chlopsid FP I: bilirubin-inducible fluorescent fatty acid-binding protein from Kaupichthys hyoproroides, SEQ ID NO: 1 (protein)
chain: MFEDFLGTWKCIDSQNFGAYLAAIGAPPVLSERADATRPTVHFNRDGDKLSLKVEHGPPPLKDVLLSFKLGEEFDEHPTDGRKCKTLVTFEGDKLLYLQKWDGKETVVVREIRDGNVVATLSHEGVVALRVYKKVAGPTALE
modifications: Kaupichthys hyoproroides
With B3 the “Fluorescence upon addition” value (mammalian cells) was “strong green fluorescence”, the “Ex/Em maxima: emission maximum” value [3] was 527 nm and 524 nm and the “Ex/Em maxima: excitation maximum” value [3] was 498 nm and 490 nm. The Two-photon excitation dip (HEK293 cells; HEK293) was 840 nm, the Two-photon excitation peak (HEK293 cells; HEK293, excitation fairly flat from 700-1000 nm) was 860 nm and the “Fluorescence of expressing cells” value (HEK293 cells; HEK293, without the addition of bilirubin, single and two-photon imaging) was “bright fluorescence”. The Fluorescence quantum yield [4] was 0.47 and the “Fluorescence upon addition” value (E. coli) was “strong green fluorescence”.
